Target: T1, HLA-A*02:01 (human)
T1 construct: captured on streptavidin plates; also called peptide-receptive MHC molecules
Test: UV peptide exchange ELISA (anti-b2m); yield grade: + >10%, ++ >20%, +++ >50, ++++ >75%
How it was run: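 ELISA (anti-β2m, HRP/TMB, 450 nm) of UV-exchanged HLA-A*02:01 complexes measured exchange yield relative to HLA-A*02:01/MLA-001 standards.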

Row | Binder | peptide exchange yield
1 | LIDKIIEYL | 20 to 50%
2 | LLAKAVQNV | 50 to 75%
3 | KLGFGTGVNVYL | > 75%
4 | GLLDVMYQV | > 75%
5 | SLGPIMLTKI | 20 to 50%
6 | SLDEVAVSL | > 75%
7 | LLDDPTNAHFI | 50 to 75%
8 | NLPSELPQL | 50 to 75%
9 | SLAGLVLYV | > 75%
10 | ALLSQDFEL | > 75%
11 | ILDEEKFNV | 50 to 75%
12 | ILDEGHILQL | > 75%
13 | FLYTYIAKV | 50 to 75%
14 | ILDYIHNGL | 50 to 75%
15 | ELDKIYETL | 10 to 20%
16 | HTLPHEIVVNL | 50 to 75%
17 | AVDNILLKL | 50 to 75%
18 | LLSNTVSTL | 50 to 75%
19 | ALKDLVNLI | > 75%
20 | VLKADVVLL | 20 to 50%
21 | LLDMSLVKL | 50 to 75%
22 | YVDSEGIVRM | 10 to 20%
23 | VMFEYGMRL | > 75%
24 | ILPEAQDYFL | > 75%

Row | Binder | peptide exchange yield
25 | FVYGEPREL | 50 to 75%
26 | SIIPYLLEA | > 75%
27 | KTWDQVPFSV | > 75%
28 | NLQEKVPEL | 50 to 75%
29 | HLIGWTAFL | > 75%
30 | GILSFLPVL | 50 to 75%
31 | ILDELVKSL | 50 to 75%
32 | LLDSGAFHL | 50 to 75%
33 | LIDEAAQML | 50 to 75%
34 | IIDDVMKEL | 20 to 50%
35 | FLAEAARSL | > 75%
36 | GLDKVITVL | 50 to 75%
37 | NLDYAILKL | 10 to 20%
38 | NLDKLYHGL | 10 to 20%
39 | HLDQIFQNL | 20 to 50%
40 | SIDDVVKKL | 20 to 50%
41 | NLDATVTAL | 50 to 75%
42 | IIDDKPIGL | 50 to 75%
43 | ALDSDPVGL | 50 to 75%
44 | ILGDWSIQV | > 75%
45 | KLSVHVTAL | > 75%
46 | SVNGFISTL | 20 to 50%
47 | VMSSTLYTV | > 75%
48 | FMYAGQLTL | > 75%

Row | Binder | peptide exchange yield
49 | SIPDTIASV | 50 to 75%
50 | ILLDRLFSV | > 75%
51 | GTIPLIESL | 10 to 20%
52 | SIDDSDPIV | 10 to 20%
53 | LLDTTQKYL | > 75%
54 | QIDSIHLLL | 50 to 75%
55 | NLPNTNSILGV | 50 to 75%
56 | IIDPPLHGQLL | 20 to 50%
57 | ALPPPPASI | 50 to 75%
58 | GLDTILQNL | > 75%
59 | TTLGGFAKV | 20 to 50%
60 | GIDDLHISL | 50 to 75%
61 | LLPDPLYSL | 20 to 50%
62 | LLDALQHEL | 50 to 75%
63 | TLLEVDAIVNA | > 75%
64 | FLDDGNQML | 50 to 75%
65 | ALFAAGANV | 50 to 75%
66 | TLKEYLESL | 50 to 75%
67 | LLDAFSIKL | 50 to 75%
68 | YLINFEIRSL | > 75%
69 | ILDNSPAFL | 50 to 75%
70 | FADELSHLL | 50 to 75%
71 | KLPGFPTQDDEV | 20 to 50%
72 | ILDGIIREL | 50 to 75%

From US20190040115A1 (IMMATICS BIOTECHNOLOGIES, published 2019)
